Laboratory results: patent publication US20130309248A1
Numbering of substitutions follows the chain as printed.

B1: CR8041 (antibody, V domains shown)
VH: QVQLVQSGAEVKKPGASVKVSCQASGYTFTSFGLSWVRQAPGQGPEWMGWISAYNGEIKYAQKFQGRVSMTTDTSTRTAYMEVRSLRPDDTAVYYCAREPPLYFSSWSLDF
VL: EIVLTQSPGTLSLSPGERATLSCRASQSVSSNYLAWFQQKPGQAPRLLIYGASRRATGIPDRFSGSGSGTDFTLTISRLEPEDFAVYYCQQYDSSPRT
B2: CR8003 (antibody, V domains shown)
VH: EVQLVETGGDLVQPGGSLRLSCSASEFSFSSYWMSWVRQAPGKGLEWVANMKQDGSEKYYVDSVKGRFTISRDNAKNSLYLQMNSLRGEDTAVYYCARGSCDDSWTGCHDAFDI
VL: VLTQPPSVSVAPGQTARIACGGNNIGSKSVHWYQQKPGQAPVLVVYDDSARPSGIPERFSGSNSGNTATLTISRVEAGDEADYYCQVWESGSDLRLL
B3: CR8015 (antibody, V domains shown)
VH: B2 VH with E1Q, V5Q, T7S
VL: VLTQPPSVSVAPGQTAKITCGGDNIGRKSVHWYQQKPGLAPVLVVNDNSDRPSGIPARFSGSNSGNTATLTISRVEAGDEADYYCHVWGSSRDHYV
B4: CR8016 (antibody, V domains shown)
VH: B2 VH with T7S
VL: QSVVTQPPSVSGAPGQRVTISCTGSSSNIGAGYDVHWYQQLPGTAPKLLIYGNNNRPSGVPDRFSGSRSGPLALLAITGLQAEDEADYYCQSYDSSLSVYV
B5: CR8017 (antibody, V domains shown)
VH: B2 VH
VL: SSELTQDPAVSVALGQTVRITCQGDSLRSYYASWYQQKPGQAPVLVIYAKTNRPSGIPDRFSGSTSGNTASLTITGAQAEDEADYYCNSRDSSGNHVV
B6: CR8049 (antibody, V domains shown)
VH: QVTLKESGPVLVKPKETLTLTCTVSGFSLSNTRMGVSWIRQPPGKALEWLAHIFSNDETSYRTSLKRRLTISQDISKSQVVLSMTNVDPADTATYFCARIGSGYESSAYSTWLDP
VL: QVQLQQWGAGLLKPSETLSLTCAVYGGSFTDHYWSWIRQSPGKGLEWIGEVVHSGDTNYTPSLRNRVSISVDSSKNQFSLRLGSVTAADTAVYYCARGRNVAVVGAIQRHYDY
B7: CR8018 (antibody, V domains shown)
VH: B2 VH
VL: QSALTQPASVSGSPGQSITISCTGTSSDVGGYNYVSWYQQHPGKAPKLMIYEVSHRPSGVSNRFSGSKSGSTASLTISGLQSEDEADYYCSSYTGEGPLGV
B8: CR8052 (antibody, V domains shown)
VH: DIQLTQSPSSLSASVGDRVTITCRASQGINTYLNWYQQKPGKAPKVLIFAASTLQSGVPSRFSGSGSGTEFTLNINNLQPEDFATYYCQQSYSTAIT
VL: EVQLVESGGGVVQPGRSLRLSCAASGFSFTTYGMHWVRQAPGKGLEWVAFIWYDGSNKHYQDSVKGRFTISKDNSNNMLYLQMDSLRVADTAVYYCVRDGGYSTWEWYFDL
B9: CR8039 (antibody, V domains shown)
VH: QLQLQESGPGLVKPSETLSLTCTVSGGSIGSYYWSWIRQPPGKGLEWIGYIYYRGGTSYNPSLKSRVTISVDTSKSQFTLKLNSVTAADTAVYYCARKDWGSAAGSVWYFDL
VL: QSALTQPPSASGSPGQSVTISCTGTSSDVGGYNYVSWYQQHPGKAPKLMIREVSKRPSGVPDRFSGSKSGNTASLTVSGLQAEDEAEYYCSSYAGSNNLI
B10: CR8001 (antibody, V domains shown)
VH: EVQLVESGGGLIQPGGSLRLSCAASGFTVSSNYVSWVRQAPGKGLEWLSLIYTGGTTYYADSVKGRFTISRDNSKNTVFLQMNSLRAEDAAMYYCARVSALRFLQWPNYAMDV
VL: B7 VL with Q16R, T23S, S26R, Y32H

The binders below were run against 3 H1N1 strains (1999-2007) (assay: cell-based or functional assay).

Row | Binder | SK50 titer [µg/mL]
1 | B1 | > 40

The binders below were run against full-length recombinant H3 HA (A/Wisconsin/67/2005) on PER.C6 cells (influenza A virus (H3N2)) (assay: FACS, IgG 5 µg/ml, HA-expressing PER.C6 cells; untransfected MFI 3).

Row | Binder | MFI [MFI]
2 | B2 | 657
3 | B3 | 600
4 | B4 | 840
5 | B5 | 558
6 | B6 | 542
7 | B7 | 348

Each binder was assayed against full-length recombinant H7 HA (A/Netherlands/219/2003) on PER.C6 cells (influenza A virus (H7N7)) in the same assay as above.

Row | Binder | MFI [MFI]
8 | B2 | 5
9 | B3 | 4
10 | B4 | 5
11 | B5 | 4
12 | B6 | 4
13 | B7 | 4

What follows are binders tested against full-length recombinant H1 HA (A/New Caledonia/20/1999) on PER.C6 cells (influenza A virus (H1N1)) in the same assay as above.

Row | Binder | MFI [MFI]
14 | B2 | 3
15 | B3 | 4
16 | B4 | 3
17 | B5 | 3
18 | B6 | 3
19 | B7 | 3

The binders below were run against HA of virus A/Brisbane/59/2007 (H1N1) (influenza A virus (H1N1)) (assay: cell-based or functional assay).

Row | Binder | Neutralization titer SK50 [µg/mL]
20 | B2 | > 40
21 | B3 | > 40
22 | B4 | > 40
23 | B5 | > 40
24 | B8 | > 40
25 | B6 | > 40
26 | B9 | > 40
27 | B10 | > 40
28 | B7 | > 40

Each binder was assayed against HA of virus A/Solomon Islands/IVR-145 (H1N1) (influenza A virus (H1N1)) (assay: cell-based or functional assay).

Row | Binder | Neutralization titer SK50 [µg/mL]
29 | B2 | > 40
30 | B3 | > 40
31 | B4 | > 40
32 | B5 | > 40
33 | B8 | > 40
34 | B6 | > 40
35 | B9 | > 40
36 | B10 | > 40
37 | B7 | > 40

The binders below were run against HA of virus A/Wisconsin/67/2005 (H3N2) (influenza A virus (H3N2)) (assay: cell-based or functional assay).

Row | Binder | Neutralization titer SK50 [µg/mL] | SK50 titer [µg/mL]
38 | B2 | 5.31 | –
39 | B3 | 23.8 | –
40 | B4 | 1.77 | –
41 | B5 | 2.82 | –
42 | B8 | > 40 | –
43 | B6 | 3.26 | –
44 | B9 | 1.8 | –
45 | B10 | 11.9 | 11.9
46 | B7 | 6.03 | –

Target: 3 H1N1 strains (1999-2007)
Assay: cell-based or functional assay
Remark: another data set of the same source

Row | Binder | SK50 titer [µg/mL]
47 | B10 | > 40

These binders were tested against HA of virus A/Mallard/Netherlands/12/2000 (H7N3) (influenza A virus (H7N3)) (assay: cell-based or functional assay).

Row | Binder | Neutralization titer SK50 [µg/mL] | SK50 titer [µg/mL]
48 | B2 | > 40 | –
49 | B3 | > 40 | –
50 | B4 | > 40 | –
51 | B5 | > 40 | –
52 | B8 | > 40 | –
53 | B6 | > 40 | –
54 | B9 | > 40 | –
55 | B10 | > 40 | > 40
56 | B7 | > 40 | –

Each binder was assayed against HA of virus A/Johannesburg/33/94 (H3N2) (influenza A virus (H3N2)) (assay: cell-based or functional assay).

Row | Binder | Neutralization titer SK50 [µg/mL] | SK50 titer [µg/mL]
57 | B2 | > 40 | –
58 | B3 | > 40 | –
59 | B4 | > 40 | –
60 | B5 | > 40 | –
61 | B8 | > 40 | –
62 | B6 | > 40 | –
63 | B9 | 1.33 | –
64 | B10 | 6.51 | 6.5
65 | B7 | > 40 | –

What follows are binders tested against HA of virus A/Panama/2000/1999 (H3N2) (influenza A virus (H3N2)) (assay: cell-based or functional assay).

Row | Binder | Neutralization titer SK50 [µg/mL] | SK50 titer [µg/mL]
66 | B2 | > 40 | –
67 | B3 | > 40 | –
68 | B4 | 28.3 | –
69 | B5 | > 40 | –
70 | B8 | 21.9 | –
71 | B6 | > 40 | –
72 | B9 | 4.6 | –
73 | B10 | > 40 | > 40
74 | B7 | > 40 | –

Each binder was assayed against HA of virus A/New Caledonia/20/1999 (H1N1) (influenza A virus (H1N1)) (assay: cell-based or functional assay).

Row | Binder | Neutralization titer SK50 [µg/mL]
75 | B2 | > 40
76 | B3 | > 40
77 | B4 | > 40
78 | B5 | > 40
79 | B8 | > 40
80 | B6 | > 40
81 | B9 | > 40
82 | B10 | > 40
83 | B7 | > 40

The binders below were run against HA of virus A/Chick/Germany/N/49 (H10) (influenza A virus (H10)) (assay: cell-based or functional assay).

Row | Binder | Neutralization titer SK50 [µg/mL] | SK50 titer [µg/mL]
84 | B2 | > 40 | –
85 | B3 | > 40 | –
86 | B4 | > 40 | –
87 | B5 | > 40 | –
88 | B8 | > 40 | –
89 | B6 | > 40 | –
90 | B9 | > 40 | –
91 | B10 | > 40 | > 40
92 | B7 | > 40 | –

These binders were tested against HA of virus A/Hiroshima/52/2005 (H3N2) (influenza A virus (H3N2)) (assay: cell-based or functional assay).

Row | Binder | Neutralization titer SK50 [µg/mL] | SK50 titer [µg/mL]
93 | B2 | 4.27 | –
94 | B3 | 28.3 | –
95 | B4 | 8.84 | –
96 | B5 | 13.6 | –
97 | B8 | > 40 | –
98 | B6 | 3.54 | –
99 | B9 | 3.26 | –
100 | B10 | 13 | 13
101 | B7 | 8.45 | –

These binders were tested against full-length recombinant H3 HA (A/Wisconsin/67/2005) on PER.C6 cells (influenza A virus (H3N2)) (assay: FACS, IgG 5 µg/ml, HA-expressing PER.C6 cells; untransfected MFI 4).

Row | Binder | MFI [MFI]
102 | B8 | 364
103 | B9 | 503
104 | B1 | 364
105 | B10 | 763

These binders were tested against full-length recombinant H7 HA (A/Netherlands/219/2003) on PER.C6 cells (influenza A virus (H7N7)) in the same assay as above.

Row | Binder | MFI [MFI]
106 | B8 | 5
107 | B9 | 4
108 | B1 | 120
109 | B10 | 106

Each binder was assayed against full-length recombinant H1 HA (A/New Caledonia/20/1999) on PER.C6 cells (influenza A virus (H1N1)) in the same assay as above.

Row | Binder | MFI [MFI]
110 | B8 | 4
111 | B9 | 4
112 | B1 | 4
113 | B10 | 100
